Assay results as given in publication PMC8391104, “Molecular mechanism of Mad1 kinetochore targeting by phosphorylated Bub1” (EMBO Reports, 2021).

Columns and labels:
[1] = target: Mad1 C-terminal domain (Mad1^CTD) homodimer, residues 597-718 (human) (UniProt Q9Y6D9); test: ITC; Bub1^CD1 peptide (0.3-1.5 mM) titrated into Mad1 (30-100 µM) in the cell; 20°C; 20 mM HEPES pH 7.5, 100 mM NaCl, 1 mM TCEP; single-site model; stoichiometry counted on dimeric Mad1^CTD
Mad1 CTD, 597-718 = Mad1 CTD, 597-718 (UniProt Q9Y6D9); test: 1H,15N HSQC titration of 15N-Mad1CTD; settings: reference: non-phosphorylated peptide; sites S459,T461
[2] = target: Mad1 C-terminal domain (Mad1^CTD) homodimer, residues 597-718 (human) (UniProt Q9Y6D9); test: NMR titration; 1H,15N 2D HSQC of 15N-labelled Mad1^CTD with unlabelled peptide added (dimer to peptide 1:0.5 to 1:4); 50 mM HEPES pH 7.0, 100 mM NaCl, 2 mM TCEP, 0.02% NaN3, 298 K
[3] = target: Mad1 C-terminal domain (Mad1^CTD) homodimer, residues 597-718 (human) (UniProt Q9Y6D9); test: NMR titration; 31P 1D spectra of phosphorylated Bub1^CD1 peptide with Mad1^CTD dimer at 1:1 and 1:2 dimer to peptide, around 0.25 to 0.5 mM of each; 50 mM HEPES pH 7.0, 100 mM NaCl, 2 mM TCEP, 0.02% NaN3, 298 K
[4] = target: Mad1 C-terminal domain (Mad1^CTD) homodimer, residues 597-718 (human) (UniProt Q9Y6D9); test: crystal structure; co-crystallisation of Mad1^CTD (0.35 mM) with Bub1^CD1 peptide at 2.5 mM in 5% DMSO (or 5 mM in 10% DMSO); 10% isopropanol, 0.1 M Na HEPES pH 7.5, 20% PEG 4000; 21°C

Mad1 C-terminal domain (Mad1^CTD) homodimer, residues 597-718 (human), sequence (Q9Y6D9 597-718): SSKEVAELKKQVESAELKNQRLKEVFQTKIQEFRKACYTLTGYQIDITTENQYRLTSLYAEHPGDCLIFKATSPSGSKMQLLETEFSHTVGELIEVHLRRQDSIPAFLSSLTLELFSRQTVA

| Kd [1] [nM] | binding against the reference (Mad1 CTD, 597-718) | stoichiometry N (peptide per Mad1^CTD dimer) [2] | stoichiometry N (peptide per Mad1 dimer) [1] | stoichiometry N (peptide per Mad1^CTD dimer) [3] | stoichiometry N (peptides per Mad1^CTD homodimer) [4] | Substance |
| --- | --- | --- | --- | --- | --- | --- |
| 3300 |  |  |  |  |  | singly phosphorylated Bub1^CD1 peptide (pThr461) |
|  | gained |  |  |  |  | Bub1 CD1, 455-479 (from UniProt O43683) phosphorylated peptide |
| 2700 |  | 1 | 1 | 1 | 2 | doubly phosphorylated Bub1^CD1 peptide (pSer459-pThr461) |
